Assays:
Conditions in all cases: both partners purified
[1] = target: T1, α-synuclein amyloid fibrils (unlabeled) (UniProt P37840 1-140); test: microfluidic diffusional sizing; dissociation of bound αB-c followed in a saturated α-syn fibril solution at 7 °C
[2] = target: T1, α-synuclein amyloid fibrils (unlabeled); test: microfluidic diffusional sizing; kinetics in free solution, 1 μM GFP-αB-c with 10 μM α-syn fibrils, 25 °C, PBS pH 7.2, 0.1 % NaN3; aliquots over 50 to 150 h; second-order rate equation; apparent constants, KD from koff/kon, per monomer equivalent of αB-c
[3] = target: T1, α-synuclein amyloid fibrils (unlabeled); test: microfluidic diffusional sizing; kinetics in free solution, 1 μM GFP-αB-c with 10 μM α-syn fibrils, 7 °C, PBS pH 7.2, 0.1 % NaN3; koff calculated from the association kinetics
[4] = target: T1, α-synuclein amyloid fibrils (unlabeled); test: microfluidic diffusional sizing; global analysis of the kinetics at 7, 10, 17, 20, 25, 30 and 37 °C: binding-site concentration fitted globally; nonlinear van't Hoff analysis of KD,app, reference temperature 310 K (37 °C value not used)
[5] = target: T1, α-synuclein amyloid fibrils (unlabeled); test: microfluidic diffusional sizing; equilibrium titration, 1 to 100 μM α-syn fibrils with 1 μM αB-c, 25 °C, 3 d, PBS pH 7.2, 0.1 % NaN3; noncooperative single-site model, binding-site ratio 1:5.4 fixed; apparent
[6] = target: T1, α-synuclein amyloid fibrils (unlabeled); test: microfluidic diffusional sizing; kinetics in free solution, 1 μM GFP-αB-c with 10 μM α-syn fibrils, 20 °C, PBS pH 7.2, 0.1 % NaN3; apparent constants, KD from koff/kon

koff [1]: 5.6e-05 s⁻¹ | Kd [2]: 373 ± 238 nM | koff [2]: 2.7e-06 s⁻¹ | kon [2]: 7.1 ± 2.6 M⁻¹ s⁻¹ | koff [3]: 2.6e-05 s⁻¹ | dH [4]: 443 ± 107 kJ⋅mol^−1 | stoichiometry N [4]: 5.4 α-syn equivalents per αB-c equivalent | Kd [5]: 261 ± 76 nM | Kd [6]: 4100 ± 1700 nM
B1: GFP-labeled αB-crystallin (αB-c-TEV site-GFP-His tag) (natural protein)
chain: MDIAIHHPWIRRPFFPFHSPSRLFDQFFGEHLLESDLFPTSTSLSPFYLRPPSFLRAPSWFDTGLSEMRLEKDRFSVNLDVKHFSPEELKVKVLGDVIEVHGKHEERQDEHGFISREFHRKYRIPADVDPLTITSSLSSDGVLTVNGPRKQVSGPERTIPITREEKPAVTAAPKK
notes: αB-crystallin, small heat-shock protein; Arrangement as printed: αB-c-TEV site-GFP-His tag; a TEV site lies between αB-c and GFP; Present as a polydisperse ensemble of oligomers; concentrations are in monomer equivalents; also called αB-c-GFP; small heat-shock protein αB-crystallin; not shown: GFP, C-terminal, kept

Source: article PMC8463877, “The binding of the small heat-shock protein αB-crystallin to fibrils of α-synuclein is driven by entropic forces” (Proceedings of the National Academy of Sciences of the …, 2021)
